Data: the supplement of paper PMC7125110
± gives the standard error. Variants at the floor of the assay were thinned out.

B1: glmS ribozyme (parent)
chain: AUAAAAGCGCCAGAACUACAGAAAUGUAGUUGACGAGGAGGAGGUUUAUCGAAUUUUCGGCGGAUGCCUCCAAA

Assays:
Details in all cases: with glucosamine-6-phosphate
[1] = variants of: B1; experiment: self-cleavage kobs at 160 uM GlcN6P; higher = faster cleavage; RNA array
In short: (§1)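 A hybridised Cy3 probe tracked barcoded ribozyme variants, transcribed in situ by E. coli RNA polymerase on sequenced MiSeq chips, at 37 °C. The variants received 40 μM to 10 mM glucosamine-6-phosphate in HEPES/KCl/Mg(OAc)2 buffer. kobs came from decay fits and kcat and KM from weighted Michaelis–Menten fits.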

[2] = variants of: B1; experiment: self-cleavage kobs at 640 uM GlcN6P; higher = faster cleavage; RNA array
In short: as §1

[3] = variants of: B1; experiment: self-cleavage kobs at 2500 uM GlcN6P; higher = faster cleavage; RNA array
In short: as §1

[4] = variants of: B1; experiment: self-cleavage kobs at 10000 uM GlcN6P; higher = faster cleavage; RNA array
In short: as §1

A48U C68U C70U
self-cleavage kobs at 160 uM GlcN6P [1]: < 1e-05 s⁻¹

A6U G35C A64C
self-cleavage kobs at 640 uM GlcN6P [2]: < 1e-05 s⁻¹
self-cleavage kobs at 2500 uM GlcN6P [3]: < 1e-05 s⁻¹

G51U G63C C67G
self-cleavage kobs at 160 uM GlcN6P [1]: < 1e-05 s⁻¹
self-cleavage kobs at 640 uM GlcN6P [2]: < 1e-05 s⁻¹
self-cleavage kobs at 2500 uM GlcN6P [3]: < 1e-05 s⁻¹
self-cleavage kobs at 10000 uM GlcN6P [4]: < 1e-05 s⁻¹

G7A A14G G29U C70G
self-cleavage kobs at 640 uM GlcN6P [2]: < 1e-05 s⁻¹
self-cleavage kobs at 2500 uM GlcN6P [3]: < 1e-05 s⁻¹

A6G U57A C68G
self-cleavage kobs at 640 uM GlcN6P [2]: 7.18e-05 ± 2.3e-05 s⁻¹

A6C C8G C11A A52C U57G G63C U69G
self-cleavage kobs at 640 uM GlcN6P [2]: 0.0016 ± 0.00077 s⁻¹

U49A G62A
self-cleavage kobs at 160 uM GlcN6P [1]: < 1e-05 s⁻¹
self-cleavage kobs at 640 uM GlcN6P [2]: < 1e-05 s⁻¹

A6U U54A
self-cleavage kobs at 640 uM GlcN6P [2]: 9.76e-05 ± 2e-05 s⁻¹
self-cleavage kobs at 2500 uM GlcN6P [3]: 0.000837 ± 0.00027 s⁻¹
self-cleavage kobs at 10000 uM GlcN6P [4]: 0.000256 ± 4.4e-05 s⁻¹

C50G A53U
self-cleavage kobs at 160 uM GlcN6P [1]: 0.00155 ± 0.00063 s⁻¹

U49G G51C C61U G63A
self-cleavage kobs at 160 uM GlcN6P [1]: < 1e-05 s⁻¹

C50G C61U C71U
self-cleavage kobs at 160 uM GlcN6P [1]: 0.000138 ± 4.3e-05 s⁻¹
self-cleavage kobs at 640 uM GlcN6P [2]: 0.000232 ± 7.4e-05 s⁻¹
self-cleavage kobs at 2500 uM GlcN6P [3]: 9.98e-05 ± 2.4e-05 s⁻¹
self-cleavage kobs at 10000 uM GlcN6P [4]: 0.000211 ± 5.4e-05 s⁻¹

A6U C16U G41U
self-cleavage kobs at 640 uM GlcN6P [2]: < 1e-05 s⁻¹

A6C G35U G37U G38C
self-cleavage kobs at 640 uM GlcN6P [2]: < 1e-05 s⁻¹

A6G G7A C10U G44C G60C
self-cleavage kobs at 640 uM GlcN6P [2]: < 1e-05 s⁻¹
self-cleavage kobs at 2500 uM GlcN6P [3]: < 1e-05 s⁻¹

G7U G13U A42G
self-cleavage kobs at 640 uM GlcN6P [2]: < 1e-05 s⁻¹

A6G A14C C34U
self-cleavage kobs at 640 uM GlcN6P [2]: < 1e-05 s⁻¹

C50G U57G
self-cleavage kobs at 160 uM GlcN6P [1]: 0.000283 ± 0.00012 s⁻¹

G43C U55G
self-cleavage kobs at 160 uM GlcN6P [1]: < 1e-05 s⁻¹

A6C A42U C70G
self-cleavage kobs at 640 uM GlcN6P [2]: < 1e-05 s⁻¹
self-cleavage kobs at 2500 uM GlcN6P [3]: < 1e-05 s⁻¹

A6G C11G G13C C61G
self-cleavage kobs at 640 uM GlcN6P [2]: < 1e-05 s⁻¹
self-cleavage kobs at 2500 uM GlcN6P [3]: < 1e-05 s⁻¹

A6C G41A U54G G59A G62C
self-cleavage kobs at 640 uM GlcN6P [2]: < 1e-05 s⁻¹
self-cleavage kobs at 10000 uM GlcN6P [4]: < 1e-05 s⁻¹

U49A A52U U65A U69G
self-cleavage kobs at 160 uM GlcN6P [1]: 7.53e-05 ± 2.4e-05 s⁻¹
self-cleavage kobs at 640 uM GlcN6P [2]: 0.00031 ± 0.00012 s⁻¹

G59C G60A
self-cleavage kobs at 160 uM GlcN6P [1]: < 1e-05 s⁻¹
self-cleavage kobs at 2500 uM GlcN6P [3]: < 1e-05 s⁻¹

U54A G59A C71A
self-cleavage kobs at 160 uM GlcN6P [1]: < 1e-05 s⁻¹
self-cleavage kobs at 640 uM GlcN6P [2]: < 1e-05 s⁻¹

G7A G43A U55A G60U C67U C70G
self-cleavage kobs at 640 uM GlcN6P [2]: < 1e-05 s⁻¹

C50G G60A A64G
self-cleavage kobs at 160 uM GlcN6P [1]: 8.18e-05 ± 2.1e-05 s⁻¹
self-cleavage kobs at 640 uM GlcN6P [2]: 6.58e-05 ± 2.3e-05 s⁻¹
self-cleavage kobs at 2500 uM GlcN6P [3]: 0.000134 ± 5.2e-05 s⁻¹

U49G G51U
self-cleavage kobs at 160 uM GlcN6P [1]: < 1e-05 s⁻¹
self-cleavage kobs at 640 uM GlcN6P [2]: < 1e-05 s⁻¹
self-cleavage kobs at 2500 uM GlcN6P [3]: < 1e-05 s⁻¹
self-cleavage kobs at 10000 uM GlcN6P [4]: < 1e-05 s⁻¹

A6C A12U G51U U54G
self-cleavage kobs at 640 uM GlcN6P [2]: < 1e-05 s⁻¹
self-cleavage kobs at 2500 uM GlcN6P [3]: < 1e-05 s⁻¹

C61U U65G
self-cleavage kobs at 160 uM GlcN6P [1]: < 1e-05 s⁻¹
self-cleavage kobs at 640 uM GlcN6P [2]: < 1e-05 s⁻¹

A6C U69G
self-cleavage kobs at 640 uM GlcN6P [2]: 0.000265 ± 0.00011 s⁻¹

A6U U69G
self-cleavage kobs at 640 uM GlcN6P [2]: 0.000103 ± 2.3e-05 s⁻¹
self-cleavage kobs at 2500 uM GlcN6P [3]: 4.72e-05 ± 1.4e-05 s⁻¹

G51A G66A
self-cleavage kobs at 160 uM GlcN6P [1]: < 1e-05 s⁻¹
self-cleavage kobs at 640 uM GlcN6P [2]: < 1e-05 s⁻¹

A48C A52U
self-cleavage kobs at 160 uM GlcN6P [1]: < 1e-05 s⁻¹
self-cleavage kobs at 640 uM GlcN6P [2]: < 1e-05 s⁻¹
self-cleavage kobs at 2500 uM GlcN6P [3]: < 1e-05 s⁻¹
self-cleavage kobs at 10000 uM GlcN6P [4]: < 1e-05 s⁻¹

A6G A14C C16G G40C
self-cleavage kobs at 640 uM GlcN6P [2]: < 1e-05 s⁻¹
self-cleavage kobs at 2500 uM GlcN6P [3]: < 1e-05 s⁻¹

G51C U65G
self-cleavage kobs at 160 uM GlcN6P [1]: < 1e-05 s⁻¹
self-cleavage kobs at 640 uM GlcN6P [2]: < 1e-05 s⁻¹
self-cleavage kobs at 2500 uM GlcN6P [3]: < 1e-05 s⁻¹

G7U C10U G43U
self-cleavage kobs at 640 uM GlcN6P [2]: < 1e-05 s⁻¹

G7U A14C G37C
self-cleavage kobs at 640 uM GlcN6P [2]: < 1e-05 s⁻¹
self-cleavage kobs at 2500 uM GlcN6P [3]: < 1e-05 s⁻¹

A6G A48G C61G
self-cleavage kobs at 640 uM GlcN6P [2]: < 1e-05 s⁻¹

A6U G51C U56A U69G C70A
self-cleavage kobs at 640 uM GlcN6P [2]: 0.000269 ± 8e-05 s⁻¹

G51U A53U
self-cleavage kobs at 160 uM GlcN6P [1]: < 1e-05 s⁻¹
self-cleavage kobs at 640 uM GlcN6P [2]: < 1e-05 s⁻¹
self-cleavage kobs at 2500 uM GlcN6P [3]: < 1e-05 s⁻¹
self-cleavage kobs at 10000 uM GlcN6P [4]: < 1e-05 s⁻¹

A6C G13C G51U
self-cleavage kobs at 640 uM GlcN6P [2]: < 1e-05 s⁻¹

G44U U65G C70G
self-cleavage kobs at 160 uM GlcN6P [1]: < 1e-05 s⁻¹
self-cleavage kobs at 2500 uM GlcN6P [3]: < 1e-05 s⁻¹

A6G A36C C50G
self-cleavage kobs at 640 uM GlcN6P [2]: 0.000132 ± 3.4e-05 s⁻¹

A6G G51A G59U G60A
self-cleavage kobs at 640 uM GlcN6P [2]: < 1e-05 s⁻¹
self-cleavage kobs at 2500 uM GlcN6P [3]: < 1e-05 s⁻¹

G7A C34A G43A G66U U69G
self-cleavage kobs at 640 uM GlcN6P [2]: < 1e-05 s⁻¹
self-cleavage kobs at 2500 uM GlcN6P [3]: < 1e-05 s⁻¹

A48C G60A C61A
self-cleavage kobs at 160 uM GlcN6P [1]: < 1e-05 s⁻¹

G51C C67G
self-cleavage kobs at 160 uM GlcN6P [1]: < 1e-05 s⁻¹
self-cleavage kobs at 10000 uM GlcN6P [4]: < 1e-05 s⁻¹

G51U C61G C71G
self-cleavage kobs at 160 uM GlcN6P [1]: 0.000101 ± 2.2e-05 s⁻¹
self-cleavage kobs at 640 uM GlcN6P [2]: 0.000494 ± 0.00014 s⁻¹
self-cleavage kobs at 2500 uM GlcN6P [3]: 9.55e-05 ± 2.1e-05 s⁻¹

A52C U54C
self-cleavage kobs at 160 uM GlcN6P [1]: < 1e-05 s⁻¹

A6C G35U C71A
self-cleavage kobs at 640 uM GlcN6P [2]: < 1e-05 s⁻¹
self-cleavage kobs at 2500 uM GlcN6P [3]: < 1e-05 s⁻¹

A6U U56G U65A C67A
self-cleavage kobs at 640 uM GlcN6P [2]: 9.86e-05 ± 3e-05 s⁻¹
self-cleavage kobs at 2500 uM GlcN6P [3]: 0.000119 ± 2.9e-05 s⁻¹

A6U G44U G51U U54A
self-cleavage kobs at 640 uM GlcN6P [2]: < 1e-05 s⁻¹
self-cleavage kobs at 2500 uM GlcN6P [3]: < 1e-05 s⁻¹

G51C C58A
self-cleavage kobs at 160 uM GlcN6P [1]: < 1e-05 s⁻¹
self-cleavage kobs at 640 uM GlcN6P [2]: < 1e-05 s⁻¹
self-cleavage kobs at 2500 uM GlcN6P [3]: < 1e-05 s⁻¹

A6G C8G C11G G13U C50G C61A C71U
self-cleavage kobs at 640 uM GlcN6P [2]: 0.00556 ± 0.0017 s⁻¹
self-cleavage kobs at 2500 uM GlcN6P [3]: 0.000121 ± 5.1e-05 s⁻¹

U45G U47G
self-cleavage kobs at 160 uM GlcN6P [1]: 0.000328 ± 9.1e-05 s⁻¹
self-cleavage kobs at 640 uM GlcN6P [2]: 0.00314 ± 0.00086 s⁻¹
self-cleavage kobs at 2500 uM GlcN6P [3]: 0.00347 ± 0.00055 s⁻¹

A6U C67U C70G
self-cleavage kobs at 640 uM GlcN6P [2]: 0.000211 ± 6.3e-05 s⁻¹

A6G G38A C50G
self-cleavage kobs at 640 uM GlcN6P [2]: 0.00032 ± 7.9e-05 s⁻¹
self-cleavage kobs at 2500 uM GlcN6P [3]: 0.000113 ± 3.5e-05 s⁻¹

A6G C11G C34U U45G
self-cleavage kobs at 640 uM GlcN6P [2]: < 1e-05 s⁻¹

G7C C8A U30C A33C
self-cleavage kobs at 640 uM GlcN6P [2]: < 1e-05 s⁻¹
self-cleavage kobs at 2500 uM GlcN6P [3]: < 1e-05 s⁻¹
self-cleavage kobs at 10000 uM GlcN6P [4]: < 1e-05 s⁻¹

G43C U54A G60C
self-cleavage kobs at 160 uM GlcN6P [1]: < 1e-05 s⁻¹
self-cleavage kobs at 640 uM GlcN6P [2]: < 1e-05 s⁻¹

A6C U46C U47C G59A
self-cleavage kobs at 640 uM GlcN6P [2]: < 1e-05 s⁻¹
